B1: DARPin G4 (designed binder)
chain: GSDLGKKLLEAARAGQDDEVRILMANGADVNAADHSGDTPLHLAAMEGHLEIVEVLLKTGADVNAHDLEGYTPLHLAAYHGHLEIVEVLLKAGADVNAWDSYGYTPLHLAAMTGHLEIVEVLLKHGADVNAQDKFGKTPFDLAIDNGNEDIAEVLQKAA
modifications: G4 assigned to 7Z7E by elimination: 7Z71 = C14, 7Z72 = A5, 7Z73 = 8F1; 7Z7E is the other p63 DBD-DARPin complex
B2: Alexa 488 labeled DARPin G4 (designed binder)
chain: B1 chain
modifications: Alexa Fluor 488 C5 maleimide on the C-terminal cysteine

Columns and labels:
Conditions in all cases: both partners purified
p63 DNA-binding domain = biological target: T1, p63 DNA-binding domain (human); test: ITC; target protein titrated into a constant concentration of DARPin, 25 injections of 10 µl; 50 mM HEPES pH 7.4, 150 mM NaCl, 0.5 mM TCEP; 10 °C; AB hetero-association model (SEDPHAT)
T1 construct: also called p63 DBD; source: E. coli BL21(DE3) Rosetta, purified (IMAC, TEV digestion, reverse IMAC, SEC)

p73 DNA-binding domain = biological target: T2, p73 DNA-binding domain; test: ITC; target protein titrated into a constant concentration of DARPin, 25 injections of 10 µl; 50 mM HEPES pH 7.4, 150 mM NaCl, 0.5 mM TCEP; 25 °C; AB hetero-association model (SEDPHAT)
T2 construct: also called p73 DBD; source: E. coli BL21(DE3) Rosetta, purified (IMAC, TEV digestion, reverse IMAC, SEC)

ΔNp63α = biological target: T3, ΔNp63α (human, UniProt Q9H3D4-2 1-586); test: fluorescence polarisation; fluorescence anisotropy; 500 nM Alexa 488 labeled DARPin constant, p63 isoform 0-10 µM; 50 mM Tris pH 8, 150 mM NaCl, 0.5 mM TCEP, 0.1 % Tween-20; the sheet says 20 °C, the methods 16 °C
T3 construct: open, tetrameric; also called DNp63a; source: E. coli, bacterially expressed and purified (IMAC, SEC on Superose 6)
T3 sequence (looked up): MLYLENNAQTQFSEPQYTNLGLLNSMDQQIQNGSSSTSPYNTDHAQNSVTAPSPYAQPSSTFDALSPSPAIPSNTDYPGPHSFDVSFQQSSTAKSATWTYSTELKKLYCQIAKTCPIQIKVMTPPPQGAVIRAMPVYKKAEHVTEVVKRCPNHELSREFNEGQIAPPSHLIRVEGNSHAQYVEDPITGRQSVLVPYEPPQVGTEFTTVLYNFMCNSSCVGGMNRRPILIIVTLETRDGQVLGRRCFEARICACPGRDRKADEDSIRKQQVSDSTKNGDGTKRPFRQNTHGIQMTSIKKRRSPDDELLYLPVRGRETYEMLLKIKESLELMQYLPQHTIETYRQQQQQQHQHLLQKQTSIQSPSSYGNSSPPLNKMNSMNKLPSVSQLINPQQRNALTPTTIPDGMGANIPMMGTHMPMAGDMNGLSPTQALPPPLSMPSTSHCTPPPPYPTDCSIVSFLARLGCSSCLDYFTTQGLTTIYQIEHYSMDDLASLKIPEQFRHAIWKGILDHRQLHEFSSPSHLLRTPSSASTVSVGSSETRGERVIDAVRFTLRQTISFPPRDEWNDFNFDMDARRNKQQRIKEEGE

TAp63α = biological target: T4, TAp63α (human); test: as above
T4 construct: closed, dimeric; also called TAp63a; source: E. coli, bacterially expressed and purified (IMAC, SEC on Superdex 200)

Row | Binder | Ka (p63 DNA-binding domain) [M⁻¹] | Ka (p73 DNA-binding domain) [M⁻¹] | Kd (ΔNp63α) [nM] | Kd (TAp63α) [nM]
1 | B1 | 3.14e+07 | 4.48e+06 |  | 
2 | B2 |  |  | 137 | 727

Reference: PMC9751120 (Cell Death and Differentiation, 2022)
